Experiment [1] concerns the target T1, GST-cypin (UniProt Q9WTT6 1-454).
T1 construct: Expressed in E. coli, purified on glutathione sepharose, eluted with glutathione and dialysed; No removal of GST is reported; also called purified cypin; not shown: glutathione S-transferase (GST) fusion partner
T1 sequence (looked up): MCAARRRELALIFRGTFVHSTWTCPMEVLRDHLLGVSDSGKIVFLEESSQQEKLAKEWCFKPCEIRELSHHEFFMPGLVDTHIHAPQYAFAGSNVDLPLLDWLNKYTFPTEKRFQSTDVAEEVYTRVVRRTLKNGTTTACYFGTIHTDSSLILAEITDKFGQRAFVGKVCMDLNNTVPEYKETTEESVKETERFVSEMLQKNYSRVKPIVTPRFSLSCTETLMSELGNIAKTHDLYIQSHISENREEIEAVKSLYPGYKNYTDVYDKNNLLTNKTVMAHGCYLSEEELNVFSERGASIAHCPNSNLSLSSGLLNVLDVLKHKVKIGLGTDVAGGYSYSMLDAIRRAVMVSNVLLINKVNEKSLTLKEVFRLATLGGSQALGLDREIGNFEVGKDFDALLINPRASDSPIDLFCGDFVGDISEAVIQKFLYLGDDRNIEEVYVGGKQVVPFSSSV
Kind of experiment: competition co-immunoprecipitation of purified cypin (2 µM) and tubulin heterodimers (7 µM); ligand to be displaced: tubulin heterodimers; strip labelled α-Tubulin on the sheet. The procedure:
GST, GST-cypin, and GST-snapin were expressed in E. coli and purified using glutathione sepharose as previously described (Firestein et al., 1999). Purified proteins were eluted from the beads using glutathione and dialyzed against phosphate buffered saline. Purified cypin (2 μM) and the indicated concentrations of purified snapin were mixed with tubulin heterodimers (7 μM) in PEM buffer (80 mM PIPES, pH 6.9, 2 mM MgCl₂, 0.5 mM EGTA) containing 5% glycerol for 4-6 hours at 4° C. The mixtures were subjected to immunoprecipitation using a monoclonal antibody raised against tubulin. Binding of purified proteins was assayed by SDS-PAGE followed by Western blotting using a rabbit polyclonal antibody raised against cypin (Akum et al., 2004).
Since snapin binds to cypin's CRMP homology domain, which is responsible for binding tubulin heterodimers (Akum et al., 2004), it is possible that snapin could compete tubulin binding to cypin. To address this question, co-immunoprecipitation of purified cypin and tubulin heterodimers in the presence of full-length snapin or the N-terminal half of snapin (amino acids 1-68) was performed. No association of snapin with tubulin heterodimers by co-immunoprecipitation or affinity chromatography was found in the previous experiments (data not shown). […]

The target in experiment [2] is T2, cypin (endogenous, rat brain extract) (rat, UniProt Q9WTT6 1-454).
T2 sequence (looked up): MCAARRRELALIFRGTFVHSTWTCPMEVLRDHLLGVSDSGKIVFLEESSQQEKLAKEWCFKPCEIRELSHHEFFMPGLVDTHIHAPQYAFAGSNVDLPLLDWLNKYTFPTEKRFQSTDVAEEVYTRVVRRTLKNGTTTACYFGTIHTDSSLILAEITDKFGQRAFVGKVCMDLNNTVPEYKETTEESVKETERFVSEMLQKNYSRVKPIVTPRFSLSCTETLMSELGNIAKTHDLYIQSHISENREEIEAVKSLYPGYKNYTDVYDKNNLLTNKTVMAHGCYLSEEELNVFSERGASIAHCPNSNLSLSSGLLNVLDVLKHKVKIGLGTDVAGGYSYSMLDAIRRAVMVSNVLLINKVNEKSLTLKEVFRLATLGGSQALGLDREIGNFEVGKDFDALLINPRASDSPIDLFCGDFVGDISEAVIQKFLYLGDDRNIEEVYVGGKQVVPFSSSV
Kind of experiment: GST affinity chromatography with rat brain extract. The procedure:
COS-7 cells were transfected with either pEGFP-C1-snapin, pDsRed-N1-snapin, pEGFP-C1-cypin or pDsRed-N1-cypin using Lipofectamine 2000 (Invitrogen, Carlsbad, Calif.) as described by manufacturer. Cells were washed with cold PBSE (phosphate buffered saline and 1 mM EDTA) and scraped into 5 mL of TEEN (25 mM Tris-HCl, pH 7.4, 1 mM EDTA, 1 mM EGTA, 100 mM NaCl). Cells were homogenized using a Potter-Elvehjem tissue grinder (20 strokes). Phenylmethylsulfonyl fluoride and DTT were added to lysates to final concentrations of 1 mM and cells were further lysed by passing the extract through a 25 gauge needle 5 times. Lysates were centrifuged at 12,000×g for 10 minutes at 4° C. Triton X-100 was added to the supernatant to a final concentration of 1% and incubated at 4° C. for 30 minutes. Lysates were centrifuged at 12,000×g for 10 minutes at 4° C. COS-7 cell lysates were incubated with glutathione-sepharose beads bound to 25 μg of the appropriate GST-fusion proteins for 1 hour at 4° C. Beads were washed three times with TEEN. Bound proteins were eluted with 0.5% SDS and 100 mM NaCl. Proteins were resolved on a 10% SDS polyacrylamide gel and transferred to PVDF membrane. Blots were probed with the indicated antibodies. For experiments using rat brain extracts, the extracts were prepared exactly as described above except that they were not passed through a 25 gauge needle. […]

In experiment [3] the target is SNAP-25 (endogenous, rat brain extract) (rat, UniProt P60881 1-206). Kind of experiment: co-immunoprecipitation from rat brain extract with anti-snapin. As to the method: (§1) For co-immunoprecipitation studies, one rat brain was homogenized in 10 ml of TEE (25 mM Tris, 1 mM EGTA, 1 mM EDTA)+1 mM PMSF. Triton X-100 was added to a final concentration of 1% and proteins were extracted for 1 hour at 4° C. The extract was centrifuged at 12,000×g to remove insoluble material and the supernatant was incubated with either anti-cypin, anti-snapin, preimmune serum, rabbit IgG, anti-tubulin, or mouse IgG. Protein A beads were added and after a 1 hour incubation, the beads were washed with TEE+0.2% Triton X-100. Immunoprecipitated proteins were eluted with protein loading buffer and resolved by SDS-PAGE and transferred to PVDF membrane. Blots were probed with the indicated antibodies. Experiments were performed in duplicate or triplicate.
Chain of SNAP-25 (endogenous, rat brain extract) (P60881 whole entry): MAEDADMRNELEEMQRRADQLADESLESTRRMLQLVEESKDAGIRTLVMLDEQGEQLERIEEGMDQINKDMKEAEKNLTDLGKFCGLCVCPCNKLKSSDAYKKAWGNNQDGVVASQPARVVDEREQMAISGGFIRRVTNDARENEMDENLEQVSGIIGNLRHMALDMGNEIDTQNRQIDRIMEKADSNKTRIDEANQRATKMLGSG

For experiment [4], the target named is PSD-95 (endogenous, rat brain extract) (rat, UniProt P31016 1-724, limits assumed). The experiment is described as above. The procedure: as §1
Chain of PSD-95 (endogenous, rat brain extract) (P31016 whole entry): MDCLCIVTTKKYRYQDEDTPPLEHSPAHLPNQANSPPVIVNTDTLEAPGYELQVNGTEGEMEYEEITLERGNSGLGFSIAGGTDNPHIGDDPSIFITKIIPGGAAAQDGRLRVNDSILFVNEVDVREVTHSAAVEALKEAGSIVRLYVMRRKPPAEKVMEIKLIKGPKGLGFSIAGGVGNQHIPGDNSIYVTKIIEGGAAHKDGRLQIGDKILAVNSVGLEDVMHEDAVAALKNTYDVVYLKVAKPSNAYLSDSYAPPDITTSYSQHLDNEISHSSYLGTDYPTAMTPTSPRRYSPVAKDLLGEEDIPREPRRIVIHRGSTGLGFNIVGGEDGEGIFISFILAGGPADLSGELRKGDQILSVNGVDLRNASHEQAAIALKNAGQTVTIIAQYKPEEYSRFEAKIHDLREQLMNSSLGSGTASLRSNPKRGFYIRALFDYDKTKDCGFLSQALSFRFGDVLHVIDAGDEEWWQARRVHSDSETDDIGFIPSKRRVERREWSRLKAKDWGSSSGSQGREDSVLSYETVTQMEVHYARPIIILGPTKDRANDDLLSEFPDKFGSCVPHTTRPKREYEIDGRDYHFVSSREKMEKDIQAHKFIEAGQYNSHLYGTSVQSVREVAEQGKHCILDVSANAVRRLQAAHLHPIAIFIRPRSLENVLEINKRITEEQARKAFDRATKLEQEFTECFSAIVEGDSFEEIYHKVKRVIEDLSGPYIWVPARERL

B1: GST-snapin (first 68 amino acids) (other)
chain: MAGAGSAAVSGAGTPVAGPTGRDLFAEGLLEFLRPAVQQLDSHVHAVRESQVELREQIDNLATELCRI
notes: also called snapin(1-68); N-terminal half of snapin; not shown: glutathione S-transferase (GST) fusion partner
Take B1: the binding result was “no binding (tested: 4 µM)” in experiment [1] and “no binding” in experiment [2].

B2: snapin (endogenous, rat brain extract) (other, UniProt P60192 2-136, looked up)
chain: AAAGSAAVSGAGTPVAGPTGRDLFAEGLLEFLRPAVQQLDSHVHAVRESQVELREQIDNLATELCRINEDQKVALDLDPYVKKLLNARRRVVLVNNILQNAQERLRRLNHSVAKETARRRAMLDSGVYPPGSPSK
notes: The smaller band may be a degradation product or a modified snapin
Take B2: the binding result in experiment [3] and in experiment [4] was “no binding” in each case.

The values are drawn from patent US20090053745A1 (RUTGERS THE STATE UNIVERSITY OF NEW JERSEY, published 2009).
